From patent US20090181003

Assays:
[1] = target: recombinant S6K2 (highly purified)
[2] = target: recombinant S6K1 (highly purified)

recombinant S6K2 (highly purified), sequence (chain, as listed by the source): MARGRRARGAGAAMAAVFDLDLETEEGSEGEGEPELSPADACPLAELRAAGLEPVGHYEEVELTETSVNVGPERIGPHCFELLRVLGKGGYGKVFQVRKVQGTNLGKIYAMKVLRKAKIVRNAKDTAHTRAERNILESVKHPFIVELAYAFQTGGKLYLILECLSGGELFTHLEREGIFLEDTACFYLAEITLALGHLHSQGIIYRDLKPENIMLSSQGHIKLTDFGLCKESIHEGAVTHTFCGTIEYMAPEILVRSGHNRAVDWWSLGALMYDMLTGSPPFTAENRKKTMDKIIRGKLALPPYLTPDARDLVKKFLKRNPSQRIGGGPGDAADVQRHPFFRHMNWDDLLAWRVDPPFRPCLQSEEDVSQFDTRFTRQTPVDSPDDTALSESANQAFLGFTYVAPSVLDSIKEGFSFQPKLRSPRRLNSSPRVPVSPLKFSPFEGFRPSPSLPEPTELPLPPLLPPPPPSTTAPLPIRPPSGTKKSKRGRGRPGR
GST [GST: P08515], sequence (P08515 whole entry): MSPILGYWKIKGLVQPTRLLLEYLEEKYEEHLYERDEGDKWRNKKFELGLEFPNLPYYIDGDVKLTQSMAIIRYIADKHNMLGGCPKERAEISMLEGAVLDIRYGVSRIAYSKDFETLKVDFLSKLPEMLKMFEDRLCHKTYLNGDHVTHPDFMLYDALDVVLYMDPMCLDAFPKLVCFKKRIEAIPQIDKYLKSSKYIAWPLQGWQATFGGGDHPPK

Protein | in vitro acetylation (incorporation of 14C labelled acetyl groups, autoradiography) [1] | in vitro acetylation (incorporation of 14C labelled acetyl groups, autoradiography) [2] | in vitro acetylation (GST [GST: P08515])
GST-P/CAF (protein) MSEAGGAGPGGCGAGAGAGAGPGALPPQPAALPPAPPQGSPCAAAAGGSGACGPATAVAAAGTAEGPGGGGSARIAVKKAQLRSAPRAKKLEKLGVYSACKAEESCKCNGWKNPNPSPTPPRADLQQIIVSLTESCRSCSHALAAHVSHLENVSEEEMNRLLGIVLDVEYLFTCVHKEEDADTKQVYFYLFKLLRKSILQRGKPVVEGSLEKKPPFEKPSIEQGVNNFVQYKFSHLPAKERQTIVELAKMFLNRINYWHLEAPSQRRLRSPNDDISGYKENYTRWLCYCNVPQFCDSLPRYETTQVFGRTLLRSVFTVMRRQLLEQARQEKDKLPLEKRTLILTHFPKFLSMLEEEVYSQNSPIWDQDFLSASSRTSQLGIQTVINPPPVAGTISYNSTSSSLEQPNAGSSSPACKASSGLEANPGEKRKMTDSHVLEEAKKPRVMGDIPMELINEVMSTITDPAAMLGPETNFLSAHSARDEAARLEERRGVIEFHVVGNSLNQKPNKKILMWLVGLQNVFSHQLPRMPKEYITRLVFDPKHKTLALIKDGRVIGGICFRMFPSQGFTEIVFCAVTSNEQVKGYGTHLMNHLKEYHIKHDILNFLTYADEYAIGYFKKQGFSKEIKIPKTKYVGYIKDYEGATLMGCELNPRIPYTEFSVIIKKQKEIIKKLIERKQAQIRKVYPGLSCFKDGVRQIPIESIPGIRETGWKPSGKEKSKEPRDPDQLYSTLKSILQQVKSHQSAWPFMEPVKRTEAPGYYEVIRFPMDLKTMSERLKNRYYVSKKLFMADLQRVFTNCKEYNPPESEYYKCANILEKFFFSKIKEAGLIDK | when S6K1 and S6K2 were incubated in the presence of GST-p300 HAT domain 4 or GST-P/CAF, ^14C labeled acetyl groups were indeed incorporated into the proteins | when S6K1 and S6K2 were incubated in the presence of GST-p300 HAT domain 4 or GST-P/CAF, ^14C labeled acetyl groups were indeed incorporated into the proteins | 
GST-p300 HAT domain 4 (protein) KPKRLQEWYKKMLDKAVSERIVHDYKDIFKQATEDRLTSAKELPYFEGDFWPNVLEESIKELEQEEEERKREENTSNESTDVTKGDSKNAKKKNNKKTSKNKSSLSRGNKKKPGMPNVSNDLSQKLYATMEKHKEVFFVIRLIAGPAANSLPPIVDPDPLIPCDLMDGRDAFLTLARDKHLEFSSLRRAQWSTMCMLVELHTQSQDRFVYTCNECKHHVETRWHCTVCEDYDLCITCYNTKNHDHKMEKLGLGLDDESNNQQAAATQSPGDSRRLSIQRCIQSLVHACQCRNANCSLPSCQKMKRVVQHTKGCKRKTNGGCPICKQLIALCCYHAKHCQENKCPVPFCLNIKQKLRQQQLQHRLQQAQMLRRRMASMQRTGVVGQQQGLPSPTPATPTTPTGQQPTTPQTPQPTSQPQPTPPNSMPPYLPRTQA | when S6K1 and S6K2 were incubated in the presence of GST-p300 HAT domain 4 or GST-P/CAF, ^14C labeled acetyl groups were indeed incorporated into the proteins | when S6K1 and S6K2 were incubated in the presence of GST-p300 HAT domain 4 or GST-P/CAF, ^14C labeled acetyl groups were indeed incorporated into the proteins | no acetylation of GST is seen under these conditions
